# From the FLAb antibody collection (doi:10.1101/2023.12.08.570889)
# Assays:
# FXI = assay: Kd (SPR)
# C5, P01031 = assay: Kd (SPR)
Binder,Kd (FXI) [nM],"Kd (C5, P01031) [nM]"
unnamed (protein) chain 1: EVQLLESGGGLVQPGGSLRLSCAASGFTFSQYGMDWVRQAPGKGLEWVSGIGPSGGSTVYADSVKGRFTISRDNSKNTLYLQMNSLRAEDTAVYYCTRDGPWYYYGFDVWGQGTTVTVSS chain 2: DIQMTQSPSSLSASVGDRVTITCQASQDISNYLNWYQQKPGKAPKLLIYDASNLETGVPSRFSGSGSGTDFTFTISSLQPEDIATYYCQQADSFPVTFGGGTKVEIK,46,
unnamed (protein) chain 1: EVQLLESGGGLVQPGGSLRLSCAASGFTFSQYGMDWVRQAPGKGLEWVSGIGPSGGSTVYADSVKGRFTISRDNSKNTLYLQMNSLRAEDTAVYYCTRGGPSYYYAFDVWGQGTTVTVSS chain 2: DIQMTQSPSSLSASVGDRVTITCQASQDISNYLNWYQQKPGKAPKLLIYDASNLETGVPSRFSGSGSGTDFTFTISSLQPEDIATYYCQQADSFPVTFGGGTKVEIK,1370,
unnamed (protein) chain 1: QVQLVQSGAEVKKPGASVKVSCKASGYIFSNYWIQWVRQAPGQGLEWMGEILPGSGSTEYTENFKDRVTMTRDTSTSTVYMELSSLRSEDTAVYYCARYEYGDTPYIYFDYWGQGTLVTVSS chain 2: DIQMTQSPSSLSASVGDRVTITCGASENIYGALNWYQQKPGKAPKLLIYGATNLADGVPSRFSGSGSGTDFTLTISSLQPEDFATYYCQNVLNTPLTFGQGTKVEIK,,915
unnamed (protein) chain 1: QVQLVQSGAEVKKPGASVKVSCKASGYTFTSYWIQWVRQAPGQGLEWMGEIQPGSGYTEYTENFKDRVTMTRDTSTSTVYMELSSLRSEDTAVYYCARYRYGDTPIIYFDYWGQGTLVTVSS chain 2: DIQMTQSPSSLSASVGDRVTITCGASENIYGALNWYQQKPGKAPKLLIYGATNLADGVPSRFSGSGSGTDFTLTISSLQPEDFATYYCQNVLNTPLTFGQGTKVEIK,,622
unnamed (protein) chain 1: QVQLVQSGAEVKKPGASVKVSCKASGYTFTSYWIQWVRQAPGQGLEWMGEIHPGSGYTEYTENFKDRVTMTRDTSTSTVYMELSSLRSEDTAVYYCARYRYGDTPDIYFDYWGQGTLVTVSS chain 2: DIQMTQSPSSLSASVGDRVTITCGASENIYGALNWYQQKPGKAPKLLIYGATNLADGVPSRFSGSGSGTDFTLTISSLQPEDFATYYCQNVLNTPLTFGQGTKVEIK,,597
unnamed (protein) chain 1: QVQLVQSGAEVKKPGASVKVSCKASGYIFSNYWIQWVRQAPGQGLEWMGEILPGSGSTEYTENFKDRVTMTRDTSTSTVYMELSSLRSEDTAVYYCARLRYGDTPYIYFDYWGQGTLVTVSS chain 2: DIQMTQSPSSLSASVGDRVTITCGASENIYGALNWYQQKPGKAPKLLIYGATNLADGVPSRFSGSGSGTDFTLTISSLQPEDFATYYCQNVLNTPLTFGQGTKVEIK,,2510
unnamed (protein) chain 1: QVQLVQSGAEVKKPGASVKVSCKASGYTFTSYWIQWVRQAPGQGLEWMGEIHPGSGYTEYTENFKDRVTMTRDTSTSTVYMELSSLRSEDTAVYYCARLRYGDTPIIYFDYWGQGTLVTVSS chain 2: DIQMTQSPSSLSASVGDRVTITCGASENIYGALNWYQQKPGKAPKLLIYGATNLADGVPSRFSGSGSGTDFTLTISSLQPEDFATYYCQNVLNTPLTFGQGTKVEIK,,3600
unnamed (protein) chain 1: QVQLVQSGAEVKKPGASVKVSCKASGYTFTSYWIQWVRQAPGQGLEWMGEIHPGSGYTEYTENFKDRVTMTRDTSTSTVYMELSSLRSEDTAVYYCARYRYGDTPFIYFDYWGQGTLVTVSS chain 2: DIQMTQSPSSLSASVGDRVTITCGASENIYGALNWYQQKPGKAPKLLIYGATNLADGVPSRFSGSGSGTDFTLTISSLQPEDFATYYCQNVLNTPLTFGQGTKVEIK,,1190
unnamed (protein) chain 1: QVQLVQSGAEVKKPGASVKVSCKASGYTFTSYWIQWVRQAPGQGLEWMGEIHPGSGYTEYTENFKDRVTMTRDTSTSTVYMELSSLRSEDTAVYYCARYRYGDTPIIYFDYWGQGTLVTVSS chain 2: DIQMTQSPSSLSASVGDRVTITCGASENIYGALNWYQQKPGKAPKLLIYGATNLADGVPSRFSGSGSGTDFTLTISSLQPEDFATYYCQNVLNTPLTFGQGTKVEIK,,2300
unnamed (protein) chain 1: QVQLVQSGAEVKKPGASVKVSCKASGYIFSNYWIQWVRQAPGQGLEWMGEILPGSGSTEYTENFKDRVTMTRDTSTSTVYMELSSLRSEDTAVYYCARHYYGDTPDIYFDYWGQGTLVTVSS chain 2: DIQMTQSPSSLSASVGDRVTITCGASENIYGALNWYQQKPGKAPKLLIYGATNLADGVPSRFSGSGSGTDFTLTISSLQPEDFATYYCQNVLNTPLTFGQGTKVEIK,,1700

# Further binders by falling Kd (C5, P01031), results first:
Kd (FXI) [nM],"Kd (C5, P01031) [nM]",Binder
,507,unnamed (protein) chain 1: QVQLVQSGAEVKKPGASVKVSCKASGYTFTSYWIQWVRQAPGQGLEWMGEIKPGSGYTEYTENFKDRVTMTRDTSTSTVYMELSSLRSEDTAVYYCARYRYGDTPIIYFDYWGQGTLVTVSS chain 2: DIQMTQSPSSLSASVGDRVTITCGASENIYGALNWYQQKPGKAPKLLIYGATNLADGVPSRFSGSGSGTDFTLTISSLQPEDFATYYCQNVLNTPLTFGQGTKVEIK
,399,unnamed (protein) chain 1: QVQLVQSGAEVKKPGASVKVSCKASGYTFTSYWIQWVRQAPGQGLEWMGEIHPGSGETEYTENFKDRVTMTRDTSTSTVYMELSSLRSEDTAVYYCARYRYGDTPYIYFDYWGQGTLVTVSS chain 2: DIQMTQSPSSLSASVGDRVTITCGASENIYGALNWYQQKPGKAPKLLIYGATNLADGVPSRFSGSGSGTDFTLTISSLQPEDFATYYCQNVLNTPLTFGQGTKVEIK
,324,unnamed (protein) chain 1: QVQLVQSGAEVKKPGASVKVSCKASGYIFSNYWIQWVRQAPGQGLEWMGEILPGSGSTEYTENFKDRVTMTRDTSTSTVYMELSSLRSEDTAVYYCARLYYGDTPIIYFDYWGQGTLVTVSS chain 2: DIQMTQSPSSLSASVGDRVTITCGASENIYGALNWYQQKPGKAPKLLIYGATNLADGVPSRFSGSGSGTDFTLTISSLQPEDFATYYCQNVLNTPLTFGQGTKVEIK
,293,unnamed (protein) chain 1: QVQLVQSGAEVKKPGASVKVSCKASGYTFTSYWIQWVRQAPGQGLEWMGEIKPGSGYTEYTENFKDRVTMTRDTSTSTVYMELSSLRSEDTAVYYCARHEYGDTPIIYFDYWGQGTLVTVSS chain 2: DIQMTQSPSSLSASVGDRVTITCGASENIYGALNWYQQKPGKAPKLLIYGATNLADGVPSRFSGSGSGTDFTLTISSLQPEDFATYYCQNVLNTPLTFGQGTKVEIK
,275,unnamed (protein) chain 1: QVQLVQSGAEVKKPGASVKVSCKASGYIFSNYWIQWVRQAPGQGLEWMGEILPGSGSTEYTENFKDRVTMTRDTSTSTVYMELSSLRSEDTAVYYCARYEYGDTPIIYFDYWGQGTLVTVSS chain 2: DIQMTQSPSSLSASVGDRVTITCGASENIYGALNWYQQKPGKAPKLLIYGATNLADGVPSRFSGSGSGTDFTLTISSLQPEDFATYYCQNVLNTPLTFGQGTKVEIK
,267,unnamed (protein) chain 1: QVQLVQSGAEVKKPGASVKVSCKASGYTFTSYWIQWVRQAPGQGLEWMGEIHPGSGYTEYTENFKDRVTMTRDTSTSTVYMELSSLRSEDTAVYYCARYYYGDTPYIYFDYWGQGTLVTVSS chain 2: DIQMTQSPSSLSASVGDRVTITCGASENIYGALNWYQQKPGKAPKLLIYGATNLADGVPSRFSGSGSGTDFTLTISSLQPEDFATYYCQNVLNTPLTFGQGTKVEIK
,251,unnamed (protein) chain 1: QVQLVQSGAEVKKPGASVKVSCKASGYTFTSYWIQWVRQAPGQGLEWMGEIHPGSGETEYTENFKDRVTMTRDTSTSTVYMELSSLRSEDTAVYYCARYRYGDTPIIYFDYWGQGTLVTVSS chain 2: DIQMTQSPSSLSASVGDRVTITCGASENIYGALNWYQQKPGKAPKLLIYGATNLADGVPSRFSGSGSGTDFTLTISSLQPEDFATYYCQNVLNTPLTFGQGTKVEIK
,127,unnamed (protein) chain 1: QVQLVQSGAEVKKPGASVKVSCKASGYIFSNYWIQWVRQAPGQGLEWMGEILPGSGSTEYTENFKDRVTMTRDTSTSTVYMELSSLRSEDTAVYYCARYYYGDTPYIYFDYWGQGTLVTVSS chain 2: DIQMTQSPSSLSASVGDRVTITCGASENIYGALNWYQQKPGKAPKLLIYGATNLADGVPSRFSGSGSGTDFTLTISSLQPEDFATYYCQNVLNTPLTFGQGTKVEIK
,126,unnamed (protein) chain 1: QVQLVQSGAEVKKPGASVKVSCKASGYIFSNYWIQWVRQAPGQGLEWMGEILPGSGSTEYTENFKDRVTMTRDTSTSTVYMELSSLRSEDTAVYYCARYYYGDTPIIYFDYWGQGTLVTVSS chain 2: DIQMTQSPSSLSASVGDRVTITCGASENIYGALNWYQQKPGKAPKLLIYGATNLADGVPSRFSGSGSGTDFTLTISSLQPEDFATYYCQNVLNTPLTFGQGTKVEIK
